Assay results reported in patent publication US8093030B2, “Thermostable viral polymerases and methods of use” (Lucigen Corporation, priority 2005, dated 2012).

B1: T7: T7 DNA polymerase, which incorporates ddNTPs with very low discrimination (protein, UniProt P00581 1-704, looked up)
DNA-directed DNA polymerase: MIVSDIEANALLESVTKFHCGVIYDYSTAEYVSYRPSDFGAYLDALEAEVARGGLIVFHNGHKYDVPALTKLAKLQLNREFHLPRENCIDTLVLSRLIHSNLKDTDMGLLRSGKLPGKRFGSHALEAWGYRLGEMKGEYKDDFKRMLEEQGEEYVDGMEWWNFNEEMMDYNVQDVVVTKALLEKLLSDKHYFPPEIDFTDVGYTTFWSESLEAVDIEHRAAWLLAKQERNGFPFDTKAIEELYVELAARRSELLRKLTETFGSWYQPKGGTEMFCHPRTGKPLPKYPRIKTPKVGGIFKKPKNKAQREGREPCELDTREYVAGAPYTPVEHVVFNPSSRDHIQKKLQEAGWVPTKYTDKGAPVVDDEVLEGVRVDDPEKQAAIDLIKEYLMIQKRIGQSAEGDKAWLRYVAEDGKIHGSVNPNGAVTGRATHAFPNLAQIPGVRSPYGEQCRAAFGAEHHLDGITGKPWVQAGIDASGLELRCLAHFMARFDNGEYAHEILNGDIHTKNQIAAELPTRDNAKTFIYGFLYGAGDEKIGQIVGAGKERGKELKKKFLENTPAIAALRESIQQTLVESSQWVAGEQQVKWKRRWIKGLDGRKVHVRSPHAALNTLLQSAGALICKLWIIKTEEMLVEKGLKHGWDGDFAYMAWVHDEIQVGCRTEEIAQVVIETAQEAMRWVGDHWNFRCLLDTEGKMGPNWAICH
B2: polymerase 3173: thermostable viral DNA polymerase with the amino acid sequence of SEQ ID NO:6 (protein)
chain: MGEDGLSLPKMMNTPKPILKPQPKALVEPVLCDSIDEIPAKYNEPVYFDLETDEDRPVLASIYQPHFERKVYCLNLLKEKVARFKDWLLKFSEIRGWGLDFDLRVLGYTYEQLRNKKIVDVQLAIKVQHYERFKQGGTKGEGFRLDDVARDLLGIEYPMNKTKIRETFKNNMFHSFSNEQLLYASLDAYIPHLLYEQLTSSTLNSLVYQLDQQAQKVVIETSQHGMPVKLKALEEEIHRLTQLRSEMQKQIPFNYNSPKQTAKFFGVNSSSKDVLMDLALQGNEMAKKVLEARQIEKSLAFAKDLYDIAKRSGGRIYGNFFTTTAPSGRMSCSDINLQQIPRRLRSFIGFDTEDKKLITADFPQIELRLAGVIWNEPKFIEAFRQGIDLHKLTASILFDKNIEEVSKEERQIGKSANFGLIYGIAPKGFAEYCIANGINMTEEQAYEISQKVEEVLHKDCRQHQVAYERFKYNEYVDNETWLNRTYRAWKPQDLLNYQIQGSGAELFKKAIVLLKETKPDLKIVNLVHDEIVVEADSKEAQDLAKLIKEKMEEAWDWCLEKAEEFGNRVAKIKLEVEEPHVGNTWEKP
modifications: Uncultured newly isolated virus

Tests used:
[1] = test system: M13 primer on M13mp18 ssDNA; test: Primer extension detected by Pico Green with chain terminating analogs; type: biochemical; conditions: control without chain terminating analogs, 2 mM each dNTP
Description: In a second experiment, incorporation was tested by detection of DNA synthesis using a double-strand specific fluorescent dye, Pico Green (Invitrogen). […] In separate reactions, a mix of ddGTP, ddATP ddTTP, ddCTP (2 mM each) and a mix of the four acyNTPs (2 mM each) were added to extension reactions followed by DNA polymerase. As a control, identical reactions without added chain terminating analogs were also performed. Polymerase 3173 mutant D49A was tested and, for comparison, T7 DNA polymerase, which incorporates ddNTPs with very low discrimination, and Klenow fragment of E. coli polymerase I and VENTR DNA polymerase (New England Biolabs), both of which have a higher discrimination, were also tested. Extension of the primer was detected by fluorescence of Pico Green dye.

[2] = test system: radiolabeled polynucleotide; test: Exonuclease assay (radioactive nucleotide release); type: biochemical
Description: For example, polynucleotides can be synthesized such that a detectable proportion of the nucleotides are radioactively labeled. These polynucleotides are incubated in an appropriate buffer in the presence of the polypeptide to be tested. After incubation, the polynucleotide is precipitated and exonuclease activity is detectable as radioactive counts due to free nucleotides in the supernatant.
The presence of a 3′-5′ exonuclease domain in the 3173 DNA polymerase was detected by reduction in molecular weight of a 5′ fluorescently labeled oligonucleotide. Upon incubation of the primer/template complex described in Example 5, under the same conditions, a portion of the primer product was reduced in apparent molecular weight. This reduction in size was detected by capillary electrophoresis using an ABI 310 Genetic Analyzer operated in GeneScan mode. The presence of an exonuclease domain was confirmed by sequence alignment and by incubation of the polymerase with a radiolabeled polynucleotide, followed by digestion and precipitation with trichloroacetic acid. Radioactivity due to free nucleotides in the supernatant was measured.
An exonuclease assay was performed to confirm that exonuclease activity was eliminated in the mutants. […]
Exonuclease activity for polymerase 3173 was determined as described in Example 7.

[3] = test system: primed single stranded M13 DNA; test: Binding constant (Km) for primed template; type: biochemical; conditions: nucleotides in excess, 70° C.
Description: The binding constant (reported as Km, the concentration at which the reaction rate is 50% maximal) for nucleotides by polymerase 3173 was determined using activated calf thymus DNA as a template. Reactions were maintained under pseudo-first order conditions using a molar excess of all components, with the exceptions of the enzyme and the nucleotides. Reactions (50 μl) were incubated at 70° C. and samples (5 μl each) were removed at varying time points and spotted on DE81 paper. Activity was determined as described in Example 6. The binding constant for primed template was similarly determined except that nucleotides were supplied in excess and the concentration of primed template (primed single stranded M13 DNA) was varied.

[4] = test system: plasmid and random primers; test: Strand displacement activity in rolling circle amplification (RCA) with random primers; type: biochemical
Description: As used herein, “strand displacement activity” refers to the ability of a polymerase to displace downstream DNA encountered during synthesis. Protocols such as, e.g., strand displacement amplification (SDA) may exploit this activity. Strand displacement activity may be determined using primer-initiated synthesis. A polymerase of the invention is incubated in the presence of a plasmid and random primers. A polymerase of the invention may extend the primer the complete circumference of the plasmid at which point the 5′ end of the primer is encountered. If the polymerase is capable of strand displacement activity, the nascent strand of DNA is displaced and the polymerase continues DNA synthesis. The presence of strand displacement activity results in a product having a molecular weight greater than the original template. The higher molecular weight product can be easily detected by agarose gel electrophoresis.
Strand displacement activity was determined using primer-initiated synthesis in a rolling circle amplification (RCA) protocol. Briefly, polymerase 3173 was incubated in the presence of a plasmid and random primers. Polymerase 3173 extended the primer the complete circumference of the plasmid at which point the 5′ end of the primer was encountered.

[5] = test system: Poly rA: Oligo dT; test: Reverse transcriptase activity by incorporation of radiolabeled dTTP; type: biochemical
Description: Reverse transcriptase activity was detected by incorporation of radiolabeled deoxyribonucleotide triphosphates into polydeoxyribonucleotides using a ribonucleic acid template. […] Incorporation of dTTP was detected as radioactive counts adhering to DE81 filter paper. Similar reverse transcription reactions were measured by incorporation of labeled dTTP on a poly rA template using 1 unit of Tth (Promega) and 1 unit MMLV reverse transcriptase (Novagen) according to the respective manufacturers' recommended conditions.

[6] = test system: single-stranded M13mp18 and double stranded pUC19 plasmid DNA; test: High temperature isothermal RCA amplification with random decamer primers; type: biochemical; conditions: both templates
Description: Five units of polymerase 3173 was used to amplify one nanogram each of single-stranded M13mp18 and double stranded pUC19 plasmid DNA. […] Either 0.5 μM or 5 μM of random decamer primers were added to each template. Reactions were incubated at 95° C. prior to addition of enzyme, then 16 hours at 55° C. with enzyme. One fiftieth of each reaction was resolved on a 1% agarose gel.
Results are shown in FIG. 5, Panel A. Lanes are as follows: five units of 3173 wild type DNA polymerase used to amplify M13mp18 single-stranded DNA template (lanes 2 and 3) and pUC19 double-stranded DNA (lanes 4 and 5) or no template (lane 6). Random ten nucleotide oligomer primers are added in the concentrations of 5 μM (lanes 2, 4 and 6) or 0.5 μM (lanes 3 and 5).
To determine if the amplification was specific for the template DNA, one μl of the amplification product of the positive pUC19 reaction was tested in a PCR reaction using primers specific for a 1 kb sequence in the bla gene of the original plasmid template. As a negative control, a reaction lacking deoxynucleotides was analyzed using PCR. As a positive control, the 1 kb sequence was amplified directly from 1 ng of pUC19.

[7] = test system: lacIq gene; test: Fidelity assay, lacIq amplification with blue/white colony count; conditions: 25 PCR cycles, target size 349 for lacIq
Description: Fidelity was determined by a modification of the standard assay in which the lacIq gene is amplified by the DNA polymerase of interest and inserted into a plasmid containing genes encoding a functional lacZ alpha peptide and a selectable marker. Primers of SEQ ID NOS:28 and 29 were used to amplify a sequence containing both the lacIq and the KanR gene. […] Normally a white phenotype is seen for clone containing this construct when plated on X-Gal. Mutation of the lacIq results in a blue phenotype for the colonies when plated on X-Gal.
For high fidelity PCR amplification, five units of the wild-type (proofreading) DNA polymerase 3173 (SEQ ID NO: 6) was tested using the following mix (50 mM Tris HCl (pH 9.0 at 25° C.), 50 mM KCl, 10 mM (NH4)2SO4, 1.5 mM MgSO4, 1.5 mM MgCl2, 0.1% triton-X100, 250 mM ectoine and 0.2 mM each of dGTP, dATP, dTTP and dCTP. Opposing primers of SEQ ID 28 and 29 (1 μM each) amplified the expected 2 k kb product from template SEQ ID 30 (10 ng). After thermal cycling (94° C. for 1 minute, 25 cycles of (94° C. for 15 seconds, 60° C. for 15 seconds, 72° C. for 2.5 minutes) and 72° C. 7 minutes), reaction products were quantified to determine “fold amplification,” (see below) using agarose gel electrophoresis. Both primers contain Eco109I sites. The PCR product was digested with Eco109I and inserted into the Eco109I site of pUC19. 10 G cells transformed by the construct were plated on LB plates containing ampicillin (100 μg/ml), kanamycin (30 μg/ml) and X-Gal (50 μg/ml). Blue and white colony counts were used for the fidelity determinations.

[8] = test system: plasmid DNA nicked with N.Bst NB1; test: Isothermal RCA in the absence of added primers (nick-initiated synthesis)
Description: Suitably, nick-initiated polymerase activity can be detected, e.g., on an agarose gel, as an increase in the amount of DNA product due to synthesis in the presence of a nicking enzyme as compared to minimal or no product synthesized when nicking enzyme is absent from the reaction.
Reactions containing 10 ng of plasmid DNA, 20 mM Tris-HCl, 10 mM (NH4)2SO4, 10 mM KCl, 2 mM MgSO4, 0.1% Triton X-100, pH 8.8 at 25° C., and 200 μM each of dGTP, dATP, dTTP and dCTP were incubated for 2 hours at 56° C. with or without 10 units of nick-generating enzyme N.Bst NB1 (NEB) and either no DNA polymerase, 200 units of 3173 wt or 400 units of 3173 (D49A) mutant enzyme. Parallel reactions were performed in the absence of nicking enzyme, polymerase or both. Amplification products were analyzed by agarose gel electrophoresis.

| Molecule | Primer extension, dNTPs [1] | 3′-5′ exonuclease activity [2] | nuclease activity ([2]; assay detects levels below 0.1% of wild-type) | Km [3] | Strand displacement ([4]; listed as 3173) | Strand displacement ([4]; listed as Polymerase 3173) | reverse transcription in presence of manganese versus magnesium [5] | Incorporation of dTTP ([5]; 1 U enzyme, 60° C. 20 minutes (commercial enzymes per manufacturers' conditions)) | estimated overall yield ([6]; 5 units, 1 ng template, 16 hours at 55° C.) | amplification [6] | Thermostability (T1/2 at 95°) | Fidelity [7] | Fidelity ([7]; listed as DNA polymerase 3173) | Extension from nicks [8] | yields of DNA product ([8]; nicking enzyme present, 2 hours at 56° C., 200 units 3173 wt or 400 units D49A) |
| --- | --- | --- | --- | --- | --- | --- | --- | --- | --- | --- | --- | --- | --- | --- | --- |
| B1 | 100.0% | – | – | – | – | – | – | – | – | – | – | – | – | – | – |
| B2 | – | strong | potent | 5.3 nM | strong | displaced the nascent strand of DNA and continued DNA synthesis | equivalent | 1.037 nmol | approximately 50 μg | up to 50,000 fold | 10 min | 6.98 × 10^4 | 6.98E+04 | strong | multi-microgram yields |
